Earlier results, collected in paper PMC10561060.

Biological target: chemoreceptor C-terminal pentapeptide (Escherichia coli)
Assay: ITC

Row | Substance | Kd [µM]
1 | CheR (from UniProt P07364) | 2
2 | CheB (from UniProt P07330) | 160
